Experiments:
Assay in all cases: cell-based or functional assay
[1] = target: HIV-1 Env of pseudovirus CNE17 (HIV-1)
[2] = target: HIV-1 Env of pseudovirus ZM233M.PB6 (HIV-1)
[3] = target: HIV-1 Env of pseudovirus Ce0393_C3 (HIV-1)
[4] = target: HIV-1 Env of pseudovirus Ce2010_F5 (HIV-1)
[5] = target: HIV-1 Env of pseudovirus Ce704809221_1B3 (HIV-1)
[6] = target: HIV-1 Env of pseudovirus 1056_10_TA11_1826 (HIV-1)
[7] = target: HIV-1 Env of pseudovirus Q842.d12 (HIV-1)
[8] = target: HIV-1 Env of pseudovirus AC10.0.29 (HIV-1)
[9] = target: HIV-1 Env of pseudovirus HIV-0013095-2.11 (HIV-1)
[10] = target: HIV-1 Env of pseudovirus 1006_11_C3_1601 (HIV-1)
[11] = target: HIV-1 Env of pseudovirus RHPA4259.7 (HIV-1)
[12] = target: HIV-1 Env of pseudovirus CNE8 (HIV-1)
[13] = target: HIV-1 Env of pseudovirus QH0692.42 (HIV-1)
[14] = target: HIV-1 Env of pseudovirus TRJO4551.58 (HIV-1)
[15] = target: HIV-1 Env of pseudovirus ZM135M.PL10a (HIV-1)
[16] = target: HIV-1 Env of pseudovirus Du172.17 (HIV-1)
[17] = target: HIV-1 Env of pseudovirus Du422.1 (HIV-1)
[18] = target: HIV-1 Env of pseudovirus 1012_11_TC21_3257 (HIV-1)
[19] = target: HIV-1 Env of pseudovirus CAP45.2.00.G3 (HIV-1)
[20] = target: HIV-1 Env of pseudovirus ZM214M.PL15 (HIV-1)
[21] = target: HIV-1 Env of pseudovirus 249M B10 (HIV-1)
[22] = target: HIV-1 Env of pseudovirus ZM197M.PB7 (HIV-1)
[23] = target: HIV-1 Env of pseudovirus Q259.d2.17 (HIV-1)
[24] = target: HIV-1 Env of pseudovirus ZM109F.PB4 (HIV-1)
[25] = target: HIV-1 Env of pseudovirus WEAU_d15_410_787 (HIV-1)
[26] = target: HIV-1 Env of pseudovirus CNE58 (HIV-1)
[27] = target: HIV-1 Env of pseudovirus BF1266.431a (HIV-1)
[28] = target: HIV-1 Env of pseudovirus ZM249M.PL1 (HIV-1)
[29] = target: HIV-1 Env of pseudovirus Ce2060_G9 (HIV-1)
[30] = target: HIV-1 Env of pseudovirus Q461.e2 (HIV-1)
[31] = target: HIV-1 Env of pseudovirus MS208.A1 (HIV-1)
[32] = target: HIV-1 Env of pseudovirus CNE5 (HIV-1)
[33] = target: HIV-1 Env of pseudovirus 6240_08_TA5_4622 (HIV-1)
[34] = target: HIV-1 Env of pseudovirus CNE53 (HIV-1)
[35] = target: HIV-1 Env of pseudovirus 6244_13_B5_4576 (HIV-1)
[36] = target: HIV-1 Env of pseudovirus 62357_14_D3_4589 (HIV-1)
[37] = target: HIV-1 Env of pseudovirus ZM53M.PB12 (HIV-1)
[38] = target: HIV-1 Env of pseudovirus 7030102001E5(Rev-) (HIV-1)

With PGT145 (antibody) the neutralization IC50 [1] was 0.091 µg/mL, the neutralization IC80 [1] was 1.16 µg/mL and the neutralization IC50 [2] was 0.025 µg/mL. It also gave a neutralization IC80 [2] of 0.68 µg/mL, a neutralization IC50 [3] of 0.112 µg/mL and a neutralization IC80 [3] of 1.23 µg/mL. The neutralization IC50 [4] was greater than 50 µg/mL, the neutralization IC80 [4] was greater than 50 µg/mL and the neutralization IC50 [5] was 0.102 µg/mL. The neutralization IC80 [5] was 0.71 µg/mL, the neutralization IC50 [6] was 0.23 µg/mL and the neutralization IC80 [6] was 0.938 µg/mL. For the same substance, the neutralization IC50 [7] was 0.032 µg/mL, the neutralization IC80 [7] was 0.552 µg/mL and the neutralization IC50 [8] was 0.01 µg/mL. It also gave a neutralization IC80 [8] of 0.025 µg/mL, a neutralization IC50 [9] of 9.27 µg/mL and a neutralization IC80 [9] greater than 50 µg/mL. The neutralization IC50 [10] was greater than 50 µg/mL, the neutralization IC80 [10] was greater than 50 µg/mL and the neutralization IC50 [11] was 0.029 µg/mL. It also gave a neutralization IC80 [11] of 0.095 µg/mL, an IC50 (Titer in TZM.bl cells) [12] of 0.272 µg/mL and an IC80 (Titer in TZM.bl cells) [12] of 2.24 µg/mL. It also gave a neutralization IC50 [13] greater than 50 µg/mL, a neutralization IC80 [13] greater than 50 µg/mL and a neutralization IC50 [14] greater than 50 µg/mL. The neutralization IC80 [14] was greater than 50 µg/mL, the neutralization IC50 [15] was greater than 50 µg/mL and the neutralization IC80 [15] was greater than 50 µg/mL. For the same substance, the neutralization IC50 [16] was greater than 50 µg/mL, the neutralization IC80 [16] was greater than 50 µg/mL and the neutralization IC50 [17] was 22.6 µg/mL. For the same substance, the neutralization IC80 [17] was greater than 50 µg/mL, the neutralization IC50 [18] was 0.009 µg/mL and the neutralization IC80 [18] was 0.025 µg/mL. It also gave a neutralization IC50 [19] of 0.001 µg/mL, a neutralization IC80 [19] of 0.007 µg/mL and a neutralization IC50 [20] greater than 50 µg/mL. For the same substance, the neutralization IC80 [20] was greater than 50 µg/mL, the neutralization IC50 [21] was 0.947 µg/mL and the neutralization IC80 [21] was 41.3 µg/mL. The neutralization IC50 [22] was 0.628 µg/mL, the neutralization IC80 [22] was 5.24 µg/mL and the neutralization IC50 [23] was 44.2 µg/mL. For the same substance, the neutralization IC80 [23] was greater than 50 µg/mL, the neutralization IC50 [24] was 0.042 µg/mL and the neutralization IC80 [24] was 0.234 µg/mL. It also gave a neutralization IC50 [25] of 1.95 µg/mL, a neutralization IC80 [25] of 31.5 µg/mL and a neutralization IC50 [26] of 0.183 µg/mL. For the same substance, the neutralization IC80 [26] was 7.41 µg/mL, the neutralization IC50 [27] was 1.34 µg/mL and the neutralization IC80 [27] was 18.5 µg/mL. The neutralization IC50 [28] was 1.44 µg/mL, the neutralization IC80 [28] was greater than 50 µg/mL and the neutralization IC50 [29] was 0.016 µg/mL. The neutralization IC80 [29] was 0.205 µg/mL, the neutralization IC50 [30] was 7.8 µg/mL and the neutralization IC80 [30] was greater than 50 µg/mL. The neutralization IC50 [31] was 0.334 µg/mL, the neutralization IC80 [31] was 18 µg/mL and the IC50 (Titer in TZM.bl cells) [32] was 0.001 µg/mL. The IC80 (Titer in TZM.bl cells) [32] was 0.013 µg/mL, the neutralization IC50 [33] was greater than 50 µg/mL and the neutralization IC80 [33] was greater than 50 µg/mL. It also gave a neutralization IC50 [34] of 0.006 µg/mL, a neutralization IC80 [34] of 0.084 µg/mL and a neutralization IC50 [35] of 7.27 µg/mL. It also gave a neutralization IC80 [35] of 44.5 µg/mL, a neutralization IC50 [36] greater than 50 µg/mL and a neutralization IC80 [36] greater than 50 µg/mL. The neutralization IC50 [37] was 0.367 µg/mL, the neutralization IC80 [37] was 11.8 µg/mL and the neutralization IC50 [38] was greater than 50 µg/mL. It also gave a neutralization IC80 [38] greater than 50 µg/mL.

Reference: patent publication US20240117018A1
